Assay results taken from doi:10.1101/2020.08.09.229716.

Biological target: Gβγ subunits (fluorescent-tagged, of the FRET Gαi activity reporter) (UniProt P62873)
Assay: FRET or BRET

| loss of FRET signal after EGF stimulation [%] | reduction in FRET signal compared to WT and 3YF [%] | Substance |
| --- | --- | --- |
| 50 | – | Gαi1-WT activity reporter (fluorescent-tagged Gαi) (from UniProt P63096 1-354) (natural protein) |
| – | 80 | Gαi1-Y154H activity reporter (from UniProt P63096 1-354) (natural protein) |
